Measurements reported in article doi:10.1101/2025.04.19.649678.
Read-outs that look alike come from different tables or passages of the source.

Tests used:
GPR3-BRIL fusion protein [1] = target: GPR3-BRIL fusion protein (UniProt P46089); assay: cryo-EM structure
GPR3-BRIL fusion protein [2] = target: GPR3-BRIL fusion protein (UniProt P46089); assay: cryo-EM structure; remark: listed apart in the source

GPR3-BRIL fusion protein (from UniProt P46089 1-222; P46089 240-330) (receptor)
stoichiometry N (GPR3-BRIL fusion protein [1]): 2 | stoichiometry N (GPR3-BRIL fusion protein [2]): 2
